The values below come from PMC3247736.

The data set deals with IgM (human). The experiment in a line: QCM. As to conditions: 500 mg/L IgM vs 100 ug/L IgE; 5'-biotin; 8.1 mM Na2HPO4, 1.1 mM KH2PO4, 1 mM MgCl2, 2.7 mM KCl, 138 mM NaCl, pH 7.4, 37 C; BSA-blocked avidin-coated gold crystal.

For “GGGGCACGTTTATCCGTCCCTCCTAGTGGCGTGCCCC [D17.4 anti-IgE aptamer]”, the binding signal (% of IgE response) was less than 5.
